In patent US10087225B2, “Formulation of MK2 inhibitor peptides” (MOERAE MATRIX, INC., priority 2015, dated 2018):

What was measured:
Assay in all cases: Kinase Profiling Assay
CaMKIIβ(h) = CaMKIIβ(h) (Homo sapiens, UniProt Q13554); type: biochemical; conditions: 100 μM
PKCβII(h) = PKCβII(h) (Homo sapiens, UniProt P05771); type: biochemical; conditions: 100 μM
Met(D1246N)(h) = Met(D1246N)(h) (Homo sapiens, UniProt P08581, D1228N); type: biochemical; conditions: 100 μM
Src(T341M)(h) = Src(T341M)(h) (Homo sapiens, UniProt P12931, T341M); type: biochemical; conditions: 100 μM
Flt1(h) = Flt1(h) (Homo sapiens, UniProt P17948); type: biochemical; conditions: 100 μM
Chain of Flt1(h) (P17948 27-1338): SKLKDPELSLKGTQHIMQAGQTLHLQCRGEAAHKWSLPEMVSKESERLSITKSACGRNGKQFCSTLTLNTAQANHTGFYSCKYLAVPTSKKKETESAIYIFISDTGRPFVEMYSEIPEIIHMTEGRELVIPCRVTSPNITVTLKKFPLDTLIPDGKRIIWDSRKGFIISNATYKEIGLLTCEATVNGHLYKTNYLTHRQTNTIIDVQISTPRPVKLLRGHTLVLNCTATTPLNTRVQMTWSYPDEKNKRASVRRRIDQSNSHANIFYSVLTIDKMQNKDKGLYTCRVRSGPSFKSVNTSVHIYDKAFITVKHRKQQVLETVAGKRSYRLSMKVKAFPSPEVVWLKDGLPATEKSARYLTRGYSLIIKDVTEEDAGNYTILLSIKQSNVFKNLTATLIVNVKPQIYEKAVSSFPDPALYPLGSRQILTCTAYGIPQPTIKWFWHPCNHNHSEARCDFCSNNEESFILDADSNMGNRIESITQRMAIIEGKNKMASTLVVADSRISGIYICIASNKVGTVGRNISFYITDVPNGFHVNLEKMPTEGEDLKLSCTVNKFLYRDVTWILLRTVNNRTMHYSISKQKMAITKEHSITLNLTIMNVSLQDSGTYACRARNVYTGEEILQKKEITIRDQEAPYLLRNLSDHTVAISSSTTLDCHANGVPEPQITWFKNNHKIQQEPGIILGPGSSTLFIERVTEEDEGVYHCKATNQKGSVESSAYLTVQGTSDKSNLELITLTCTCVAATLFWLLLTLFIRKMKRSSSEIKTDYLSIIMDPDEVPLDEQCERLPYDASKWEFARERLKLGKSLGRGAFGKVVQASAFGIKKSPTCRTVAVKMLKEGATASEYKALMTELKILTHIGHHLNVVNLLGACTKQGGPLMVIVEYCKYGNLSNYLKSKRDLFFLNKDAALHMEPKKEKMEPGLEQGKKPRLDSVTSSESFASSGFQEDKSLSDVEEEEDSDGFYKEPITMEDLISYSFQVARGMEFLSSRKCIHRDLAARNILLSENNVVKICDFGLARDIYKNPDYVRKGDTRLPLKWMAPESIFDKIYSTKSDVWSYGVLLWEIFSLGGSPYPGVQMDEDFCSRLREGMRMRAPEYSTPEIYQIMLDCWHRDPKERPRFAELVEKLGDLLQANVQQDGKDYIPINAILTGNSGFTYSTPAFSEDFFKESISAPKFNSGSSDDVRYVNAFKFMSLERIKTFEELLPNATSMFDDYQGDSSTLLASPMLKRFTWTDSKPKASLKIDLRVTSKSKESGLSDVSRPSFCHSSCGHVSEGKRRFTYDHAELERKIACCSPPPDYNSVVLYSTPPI

AMPKa2(h) = AMPKa2(h) (Homo sapiens, UniProt P54646); type: biochemical; conditions: 100 μM
PDK1(h) = target: T1, PDK1(h) (Homo sapiens, UniProt O15530); type: biochemical; conditions: 100 μM
T1 sequence (O15530 1-556): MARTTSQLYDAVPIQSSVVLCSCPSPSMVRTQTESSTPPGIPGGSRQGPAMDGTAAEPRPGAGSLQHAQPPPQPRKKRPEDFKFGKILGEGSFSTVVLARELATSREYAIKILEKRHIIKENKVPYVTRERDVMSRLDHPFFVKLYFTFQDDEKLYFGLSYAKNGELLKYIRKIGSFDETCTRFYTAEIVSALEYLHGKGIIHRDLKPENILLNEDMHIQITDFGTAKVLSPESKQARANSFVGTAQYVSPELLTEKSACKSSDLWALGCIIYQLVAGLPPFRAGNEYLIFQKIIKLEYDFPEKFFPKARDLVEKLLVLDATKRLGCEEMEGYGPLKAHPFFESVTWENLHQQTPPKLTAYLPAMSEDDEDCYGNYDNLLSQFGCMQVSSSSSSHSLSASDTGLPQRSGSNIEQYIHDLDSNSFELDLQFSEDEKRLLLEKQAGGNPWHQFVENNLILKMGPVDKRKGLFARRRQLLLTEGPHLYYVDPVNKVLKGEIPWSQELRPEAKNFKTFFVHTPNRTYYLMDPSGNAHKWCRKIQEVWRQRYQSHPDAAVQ

MLCK(h) = type: biochemical, human; conditions: 100 μM
Fyn(h) = Fyn(h) (Homo sapiens, UniProt P06241); type: biochemical; conditions: 100 μM
Chain of Fyn(h) (P06241 whole entry): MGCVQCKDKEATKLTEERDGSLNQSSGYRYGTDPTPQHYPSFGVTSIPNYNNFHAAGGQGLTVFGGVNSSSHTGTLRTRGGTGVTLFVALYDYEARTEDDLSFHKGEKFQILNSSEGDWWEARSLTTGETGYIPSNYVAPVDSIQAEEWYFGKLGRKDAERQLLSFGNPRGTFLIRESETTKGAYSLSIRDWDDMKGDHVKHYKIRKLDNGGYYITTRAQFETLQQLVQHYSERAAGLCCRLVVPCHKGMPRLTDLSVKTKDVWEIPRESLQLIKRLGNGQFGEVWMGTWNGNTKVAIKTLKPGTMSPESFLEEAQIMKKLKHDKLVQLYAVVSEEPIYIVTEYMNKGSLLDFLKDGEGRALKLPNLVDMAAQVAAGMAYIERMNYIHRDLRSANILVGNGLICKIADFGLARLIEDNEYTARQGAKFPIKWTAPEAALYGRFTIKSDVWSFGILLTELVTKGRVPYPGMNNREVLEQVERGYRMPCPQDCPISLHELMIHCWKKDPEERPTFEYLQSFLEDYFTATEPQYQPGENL

TAO3(h) = target: T2, TAO3(h) (Homo sapiens, UniProt Q9H2K8); type: biochemical
T2 sequence (Q9H2K8 1-898): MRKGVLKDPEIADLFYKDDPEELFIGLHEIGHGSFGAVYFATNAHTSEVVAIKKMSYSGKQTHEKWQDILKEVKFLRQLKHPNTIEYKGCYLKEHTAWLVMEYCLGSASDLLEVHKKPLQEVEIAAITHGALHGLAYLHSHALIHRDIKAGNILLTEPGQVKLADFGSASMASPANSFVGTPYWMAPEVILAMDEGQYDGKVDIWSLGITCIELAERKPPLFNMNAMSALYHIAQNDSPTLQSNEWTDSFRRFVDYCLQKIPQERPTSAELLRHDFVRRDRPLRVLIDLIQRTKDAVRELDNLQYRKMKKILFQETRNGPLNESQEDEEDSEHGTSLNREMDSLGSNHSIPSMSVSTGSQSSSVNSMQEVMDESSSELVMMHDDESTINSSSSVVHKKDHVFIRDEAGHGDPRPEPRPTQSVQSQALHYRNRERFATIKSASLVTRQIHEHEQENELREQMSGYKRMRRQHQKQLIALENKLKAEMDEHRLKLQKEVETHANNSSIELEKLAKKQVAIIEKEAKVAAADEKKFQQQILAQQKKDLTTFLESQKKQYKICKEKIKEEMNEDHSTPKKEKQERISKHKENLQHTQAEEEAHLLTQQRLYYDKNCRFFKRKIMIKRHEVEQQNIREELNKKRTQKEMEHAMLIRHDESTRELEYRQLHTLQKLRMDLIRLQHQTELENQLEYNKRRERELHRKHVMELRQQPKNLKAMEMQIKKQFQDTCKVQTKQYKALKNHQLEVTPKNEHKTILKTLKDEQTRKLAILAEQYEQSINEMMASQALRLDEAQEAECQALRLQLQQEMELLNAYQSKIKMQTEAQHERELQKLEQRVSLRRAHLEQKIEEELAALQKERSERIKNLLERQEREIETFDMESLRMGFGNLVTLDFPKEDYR

MuSK(h) = target: T3, MuSK(h) (Homo sapiens, UniProt O15146); type: biochemical
T3 sequence (O15146 24-869): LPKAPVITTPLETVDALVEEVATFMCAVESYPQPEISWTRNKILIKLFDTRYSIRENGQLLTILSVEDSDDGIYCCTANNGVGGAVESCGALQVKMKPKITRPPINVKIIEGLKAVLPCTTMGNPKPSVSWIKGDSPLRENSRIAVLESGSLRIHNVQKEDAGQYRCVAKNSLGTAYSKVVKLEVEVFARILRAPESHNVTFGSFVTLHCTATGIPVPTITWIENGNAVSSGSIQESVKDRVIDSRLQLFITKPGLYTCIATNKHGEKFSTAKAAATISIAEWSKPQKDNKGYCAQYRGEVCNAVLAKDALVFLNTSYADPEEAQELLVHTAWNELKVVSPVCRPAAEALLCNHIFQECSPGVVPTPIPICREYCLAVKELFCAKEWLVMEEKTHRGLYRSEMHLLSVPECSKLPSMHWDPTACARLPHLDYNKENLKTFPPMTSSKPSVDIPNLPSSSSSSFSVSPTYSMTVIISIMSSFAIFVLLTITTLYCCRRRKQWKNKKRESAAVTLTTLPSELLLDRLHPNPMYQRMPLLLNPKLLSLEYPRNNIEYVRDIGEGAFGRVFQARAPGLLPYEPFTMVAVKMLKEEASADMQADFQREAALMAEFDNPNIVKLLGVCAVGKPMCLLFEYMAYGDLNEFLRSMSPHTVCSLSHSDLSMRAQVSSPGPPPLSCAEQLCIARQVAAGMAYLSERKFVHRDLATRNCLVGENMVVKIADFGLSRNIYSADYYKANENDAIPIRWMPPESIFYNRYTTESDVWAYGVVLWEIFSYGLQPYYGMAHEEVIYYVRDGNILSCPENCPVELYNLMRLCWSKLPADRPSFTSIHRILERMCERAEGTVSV

Rsk1(h) = Rsk1(h) (Homo sapiens, UniProt Q15418); type: biochemical
Chain of Rsk1(h) (Q15418 whole entry): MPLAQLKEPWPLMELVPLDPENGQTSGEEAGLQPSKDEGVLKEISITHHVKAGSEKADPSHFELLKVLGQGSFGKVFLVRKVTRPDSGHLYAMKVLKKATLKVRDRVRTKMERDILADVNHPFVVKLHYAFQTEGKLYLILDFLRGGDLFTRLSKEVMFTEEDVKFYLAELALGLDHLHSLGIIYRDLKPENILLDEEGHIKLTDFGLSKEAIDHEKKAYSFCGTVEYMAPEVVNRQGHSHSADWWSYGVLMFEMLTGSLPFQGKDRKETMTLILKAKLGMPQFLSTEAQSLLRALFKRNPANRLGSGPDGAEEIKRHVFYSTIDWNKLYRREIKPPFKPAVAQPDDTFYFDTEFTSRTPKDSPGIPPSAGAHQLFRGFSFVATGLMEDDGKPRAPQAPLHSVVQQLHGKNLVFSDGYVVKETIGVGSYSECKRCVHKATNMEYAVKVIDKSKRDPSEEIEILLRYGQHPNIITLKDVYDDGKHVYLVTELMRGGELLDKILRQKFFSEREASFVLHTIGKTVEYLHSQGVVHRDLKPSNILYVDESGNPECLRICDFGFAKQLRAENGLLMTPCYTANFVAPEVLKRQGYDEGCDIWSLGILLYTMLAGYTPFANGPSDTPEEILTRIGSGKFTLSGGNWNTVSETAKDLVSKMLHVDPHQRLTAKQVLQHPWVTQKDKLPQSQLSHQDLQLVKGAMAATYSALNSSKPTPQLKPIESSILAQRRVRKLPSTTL

Flt3(D835Y)(h) = Flt3(D835Y)(h) (Homo sapiens, UniProt P36888, D835Y); type: biochemical

Chain of CaMKIIβ(h) (Q13554 whole entry): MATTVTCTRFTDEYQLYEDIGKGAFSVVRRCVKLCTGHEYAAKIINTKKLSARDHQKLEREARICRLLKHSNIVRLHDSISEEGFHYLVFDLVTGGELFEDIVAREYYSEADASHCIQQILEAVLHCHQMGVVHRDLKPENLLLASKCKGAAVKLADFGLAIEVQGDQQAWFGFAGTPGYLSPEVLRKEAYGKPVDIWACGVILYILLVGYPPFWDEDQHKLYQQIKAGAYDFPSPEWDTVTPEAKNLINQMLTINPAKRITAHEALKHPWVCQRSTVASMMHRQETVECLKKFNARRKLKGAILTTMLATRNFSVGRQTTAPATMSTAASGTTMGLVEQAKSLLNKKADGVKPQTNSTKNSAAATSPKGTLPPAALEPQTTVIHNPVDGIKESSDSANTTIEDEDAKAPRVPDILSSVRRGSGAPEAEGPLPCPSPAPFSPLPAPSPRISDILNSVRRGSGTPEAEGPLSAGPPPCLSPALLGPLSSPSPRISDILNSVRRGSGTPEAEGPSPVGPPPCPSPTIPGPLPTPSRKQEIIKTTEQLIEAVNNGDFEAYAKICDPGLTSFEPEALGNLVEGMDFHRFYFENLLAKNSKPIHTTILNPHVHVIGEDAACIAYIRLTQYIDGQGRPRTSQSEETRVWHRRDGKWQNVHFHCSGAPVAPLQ
Chain of PKCβII(h) (P05771 1-673 isoform P05771-2): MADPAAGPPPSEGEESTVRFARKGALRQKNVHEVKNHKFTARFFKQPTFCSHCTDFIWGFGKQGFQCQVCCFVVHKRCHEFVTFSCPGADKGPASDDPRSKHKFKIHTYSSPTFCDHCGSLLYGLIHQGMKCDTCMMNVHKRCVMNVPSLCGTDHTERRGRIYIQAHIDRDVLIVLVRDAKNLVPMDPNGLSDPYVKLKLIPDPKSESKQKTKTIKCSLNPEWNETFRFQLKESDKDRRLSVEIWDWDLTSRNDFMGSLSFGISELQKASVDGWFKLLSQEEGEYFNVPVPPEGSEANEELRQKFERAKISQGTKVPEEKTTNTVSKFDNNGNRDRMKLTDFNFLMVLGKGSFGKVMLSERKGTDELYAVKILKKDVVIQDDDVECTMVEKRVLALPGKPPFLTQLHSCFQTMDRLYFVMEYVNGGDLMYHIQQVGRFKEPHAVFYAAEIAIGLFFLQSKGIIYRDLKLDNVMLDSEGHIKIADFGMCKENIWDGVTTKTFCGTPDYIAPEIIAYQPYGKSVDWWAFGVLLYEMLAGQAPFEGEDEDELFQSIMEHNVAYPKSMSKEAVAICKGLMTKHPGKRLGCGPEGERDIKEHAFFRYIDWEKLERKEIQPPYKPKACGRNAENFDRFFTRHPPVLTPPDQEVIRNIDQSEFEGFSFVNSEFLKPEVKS

Substance | % activity (CaMKIIβ(h)) [%] | % activity (PKCβII(h)) [%] | % activity (Met(D1246N)(h)) [%] | % activity (Src(T341M)(h)) [%] | % activity (Flt1(h)) [%] | % activity (AMPKa2(h)) [%] | % activity (PDK1(h)) [%] | % activity (MLCK(h)) [%] | % activity (Fyn(h)) [%] | activity at 100 µM (TAO3(h)) [%] | activity at 100 µM (MuSK(h)) [%] | activity at 100 µM (Rsk1(h)) [%] | activity at 100 µM (Flt3(D835Y)(h)) [%] | % activity (TAO3(h); 100 μM) [%] | % activity (MuSK(h); 100 μM) [%] | % activity (Rsk1(h); 100 μM) [%] | % activity (Flt3(D835Y)(h); 100 μM) [%]
YARAAARQARAKALNRQLGVA (Mammalian) [MMI-0200] | 53 | 100 | 149 | 56 | 96 | 88 | 143 | 103 | 75 |  |  |  |  |  |  |  | 
H-YARAAARQARAKALARQLGVAA-OH [MMI-0100] |  |  |  |  |  |  |  |  |  | 45 | 85 | 86 | 120 |  |  |  | 
HRRIKAWLKKIKALARQLGVAA (Mammalian) [MMI-0500] | 3 | 3 | 90 | 59 | 27 | 9 | 178 | 0 | 83 |  |  |  |  | 12 | 27 | 34 | 65
